“Also recorded” adds a separate entry of the source.
B1: MsgDiR7: R2-R2 modified sgRNA, SEQ ID NO: 54 (nucleic acid)
guide: NNNNNNNNNNNNNNNNNNNGUUUGAGAGCUACCCGGGACGCGGGUCCGGGACAGUAGCAAGUUCAAAUAAGGCUAGUCCGUUAUCAACUUCCCGGGACGCGGGUCCGGGACAGAAGUGGCACCGAGUCGGUGCUUUUUU
modifications: MsgDiR7 R2-R2 Sequence; (1)..(19) n is a, c, g, or u
B2: MsgDiR6: R2-R5 modified sgRNA scaffold (CRISPR-DiR), SEQ ID NO: 53; tested with guide G2 (nucleic acid)
guide: NNNNNNNNNNNNNNNNNNNGUUUGAGAGCUACCCGGGACGCGGGUCCGGGACAGUAGCAAGUUCAAAUAAGGCUAGUCCGUUAUCAACUUCUGAGGCCUUGGCGAGGCUUCUAAGUGGCACCGAGUCGGUGCUUUUUU
modifications: MsgDiR6 R2-R5 Sequence; (1)..(19) n is a, c, g, or u
notes: tested with guide G2
B3: MsgRNA: Example 1 modified sgRNA, guide G2, R2 in tetra-loop and R5 in stem loop 2, SEQ ID NO: 15; used with dCas9 (nucleic acid)
guide: GCACUCAAACACGCCUUUGCGUUUUAGAGCUACCCGGGACGCGGGUCCGGGACAGUAGCAAGUUAAAAUAAGGCUAGUCCGUUAUCAACUUCUGAGGCCUUGGCGAGGCUUCUAAGUGGCACCGAGUCGGUGCUUUUUU
modifications: MsgRNA
notes: used with dCas9

Tests used:
P16 promoter = assay: p16 methylation (MSP/COBRA) after transient transfection; type: cell-based, human; details: SNU-398, transient co-transfection with dCas9, guide G2, 72 hours
Source text: (§1) In this example, a modified CRISPR/dCAS9 system for gene activation and demethylation was developed and tested with P16. The DiR localized in CEBPA locus (ecCEBPA) is repurposed to other specific gene target(s) for demethylation and reactivation. The RNA stem-loops (R2 and R5), interacting with DNMT1(1), were fused to the tetra- and stem-loop 2 in a single guide RNA (sgRNA) scaffold to obtain a modified sgRNA (MsgRNA, sgDiR in FIG. 1, also referred to as MsgDiR6 in Example 3 below). The hepatocellular carcinoma (HCC) cell line SNU-398, in which P16 is silenced by promoter methylation, was transiently transfected with dCas9 plasmid and one MsgRNA (using guide G2: […] (SEQ ID NO: 29), MsgRNA with guide G2 is shown as G2sgDiR in FIG. 1, as targeting portion) targeting the template strand of P16 promoter.
(§2) SNU-398 cells were seeded at a density of […] in 6-well plates 24 hours before transfection employing jetPRIME transfection reagent (Polyplus Transfection) as described by the manufacturer. 2 μg mix of sgRNA/MsgDiR and dCas9 plasmid(s) (sgRNA/MsgDiR: dCas9 molar ratio 1:1) were transfected into each well of cells. The culture medium was changed 12 hours after transfection. Alternatively, the Neon™ Transfection System (Thermo Fisher) was used for cell electroporation according to the manufacturer's instructions. The same plasmid amount and ratios were used in the Neon as in the jetPRIME transfection. The parameters used for the highest SNU-398 transfection efficiency were 0.7 to 1.5 million cells in 100 μl reagent, voltage 1550 V, width 35 ms and 1 pulse. The culture medium was changed 24 hours after transfection.
The methylation profiles of the p16 gene locus or the whole genome were assessed by bisulfite-conversion based assays. For DNA bisulfite conversion, 1.6-1.8 μg of genomic DNA of each sample was converted by the EpiTect Bisulfite Kit (Qiagen) following the manufacturer's instructions.
For Methylation-Specific PCR (MSP), both methylation specific primers and unmethylation specific primers of p16 were used for the PCR of the same bisulfite converted sample (the transient transfection samples in the sgRNA and MsgDiR1-8 screening assay). […] 7 min, 4° C. hold. […] 7 min, 4° C. hold. […] 7 min, 4° C. hold.

P16 = assay: p16 mRNA qRT-PCR after transient transfection of sgRNA/MsgDiR with or without dCas9; type: cell-based, human; details: SNU-398, 72 hours; for P16 mRNA expression (qRT-PCR): transient co-transfection with dCas9, guide G2
Source text: as §1
This study transiently transfected dCas9 plasmid together with one MsgRNA plasmid (G2sgDiR) to SNU398 cells, culturing three days without selection for the positively transfected cells. Guide G2 targets one site in the template strand (also known as antisense strand) of P16 promoter; and was initially chosen for two reasons: 1) the sequence is one of the three guides used in a P16 gene study (3), and 2) G2 targets the P16 promoter region, the methylation and demethylation of which has been considered as an important factor for gene regulation.
All measurements were performed in triplicate.
as §2

Molecule	P16 DNA methylation / demethylation (P16 promoter)	P16 mRNA expression (qRT-PCR) (P16)	P16 mRNA expression (qRT-PCR) (P16; listed as sgDiR (G2))	p16 activation in absence of dCas9 (P16; transient transfection without dCas9)	P16 DNA methylation / demethylation (P16 promoter; listed as CRISPR-R2R5 system)	P16 mRNA expression (qRT-PCR) (P16; listed as CRISPR-R2R5 system)
B1	not effective					
B2	induces P16 demethylation	moderate activation of p16; also recorded: moderate gene activation	moderate activation	no effects		
B3	loss of DNA methylation	two-fold increase			demethylation	moderate gene activation

Reference: patent US20220290139A1, “METHODS AND COMPOSITIONS FOR GENE SPECIFIC DEMETHYLATION AND ACTIVATION” (NATIONAL UNIVERSITY OF SINGAPORE, priority 2019, published 2022)
